This is an account of results in publication PMC5943153 (Molecular microbiology, 2018).

What all share (experiment): two-hybrid
For one assay, the target named is T1, T25-HP1492 (Nfu) (Helicobacter pylori strain 26695, UniProt O26025 2-89).
T1 sequence (looked up): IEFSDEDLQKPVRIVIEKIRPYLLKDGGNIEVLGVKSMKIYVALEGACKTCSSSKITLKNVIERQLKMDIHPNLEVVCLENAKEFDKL

The target in the next assay is T2, T25-HP0221 (NifU) (Helicobacter pylori strain 26695, UniProt O25009 2-326).
T2 sequence (looked up): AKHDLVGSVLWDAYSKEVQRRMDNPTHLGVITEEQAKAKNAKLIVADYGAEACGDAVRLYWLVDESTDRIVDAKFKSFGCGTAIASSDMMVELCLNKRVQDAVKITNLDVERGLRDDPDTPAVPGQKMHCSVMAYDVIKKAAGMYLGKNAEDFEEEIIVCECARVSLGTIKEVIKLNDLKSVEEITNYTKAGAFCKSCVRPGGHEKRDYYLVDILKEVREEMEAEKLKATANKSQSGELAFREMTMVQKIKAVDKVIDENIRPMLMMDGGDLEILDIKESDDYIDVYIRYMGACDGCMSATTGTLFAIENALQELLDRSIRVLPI

A further assay deals with T3, HP0221-T25 (NifU) (Helicobacter pylori strain 26695, UniProt O25009 2-326).
T3 sequence (looked up): T2 sequence (looked up)

B1: T18-HP0285 (natural protein, Helicobacter pylori strain 26695, UniProt P56130 2-418, looked up)
chain: KKVYFKTFGCRTNLFDTQVMSENLKDFSTTLEEQEADIIIINSCTVTNGADSAVRSYAKKMARLDKEVLFTGCGVKTQGKELFEKGFLKGVFGHDNKEKINALLQEKKRFFIDDNLENKHLDTTMVSEFVGKTRAFIKIQEGCDFDCNYCIIPSVRGRARSFEERKILEQVGLLCSKGVQEVVLTGTNVGSYGKDRGSNIARLIKKLSQIAGLKRIRIGSLEPNQINDEFLELLEEDFLEKHLHIALQHSHDLMLERMNRRNRTKSDRELLETIASKNFAIGTDFIVGHPGESGSVFEKAFKNLESLPLTHIHPFIYSKRKDTPSSLMTDSVSLEDSKKRLNAIKDLIFHKNKAFRQLQLKLNTPLKALVEVQKDGEFKALDQFFNPIKIKSDKPLRASFLEIKEYEIKERENHAVF
On to B1, for which the “growth OD595 in M63-maltose” value in the assay with T25-HP1492 (Nfu) was 0.21 OD595.

B2: T18-HP0656 (natural protein, Helicobacter pylori strain 26695, UniProt O25370 2-383, looked up)
chain: ARNVKGYASTLTWTITRNTLNFLWEQGFKMRINREEILDLMKNAPLKELGQRALRVKQRLHPENLTTFIVDRNINYTNICFVDCKFCAFKRTLKEKDAYVLSYEEIDQKIEELLAIGGTQILFQGGVHPQLKIDYYENLVSHIAQKFPTITIHGFSAVEIDYISKISKLSLKEVLERLKNAGLSSIPGAGAEVLSDRVRDVIAPKKLSSDRWIEVHRMAHLCGIKSTATMMFGSVDNEEDVVEHLQRVRDLQDETGGFRAFILWSFQPNNTPLKEEIPSIKKASSNRYLRYLACSRIFLDNIQNIQSSWVTQGSMIGQLALLFGANDLGSVMMEENVVKAAGTSFCMNEAGMIELIEDIGSVAAKRNTAYEILKRYPAKAKV
B2: the “growth OD595 in M63-maltose” value in the assay with T25-HP0221 (NifU) worked out at 0.13 OD595; in the assay with HP0221-T25 (NifU) it was 0.26 OD595.

B3: T18-HP1222 (natural protein, Helicobacter pylori strain 26695, UniProt O25820 2-948, looked up)
chain: RVEENYHAFFTEASGFLNERIFKDYLRRLAYGIDASCYRYIPKIVAWVKNEEEVQKLCVLAKKHGVSLTFRAAGSSLSGQAICDGVLVMVTHFFKDAQILDNAQSIQLSCGVIGSNANALLKPYHKKIGPDPSTINTAMIGGIVANNASGMCCGVEQNSYKTLKSLRVILADGTLLDTANQESVESFKNAHKDLIEGVLNLRKEILEDKELHALIKKKYEIKNTTGYSLNALIDFEDPIEIISHLFIGSEGTLGFISSVELECVKDYAYKTCALLFYENLERCAKAAQILAALKAKQPEMISSAELMDYACLKSVKGLEGMPSVVLEIKEPNACLLIQSESDDPLILENSMQTILNALSAIPVVLDSQISSDPSIYQSWWKIRKGIFPIAASKRKSQSSVIIEDICFSQEDFVEGAKAIEGLLKKHGFKDNGIIFGHALSGNLHFVVTPILENEAERKAFENLVSEMFLMVSKSSGSIKAEHGTGRMVAPFVEMEWGEKAYKIHKQIKELFDPNGILNPDVIITNDKEIHTKNLKSIYPIEEHLDMCMECGFCERICPSKDLSLTPRQRIVIHREVEHLKERVSHGHHEDQVLLDELLKESEYLAHATCAVCHMCSTLCPLEIDTGKIALNYYQKNPKGEKIASKILNHMQTTTSMARFSLKSARLVQNLIGSHNLVSLTKGIKKFIKPFPKAFYYMPKNNAYPLENKTLKSEEKVIYFSTCINRSFAPSNKMADKRCIQEVFESLCQKAKVSVMYPNGLNALCCGKAFINYTDLTKQNNEKNHAIFLQLSDKGKIPIVLDHSACSTHFFKQMKAYKDLKVYDLSVYIEEVLSPKLKFNPINEDIGLYTMCALKLENKEELLFNLAKKCTLGEIVIHKETGCCGFAGNKGFFTPELNESALNGFQAFYQSYDLKRGFSTSSTCEIGLSEKTRFSWQHIAYLVDACTL
In the case of B3, the “growth OD595 in M63-maltose” value in the assay with T25-HP1492 (Nfu) was 0.06 OD595.

B4: T18-HP0631 (natural protein, Helicobacter pylori strain 26695, UniProt O25348 2-384, looked up)
chain: FYDEKKTYQKIEERLDIVRSFNAHNEHKNLQDEFKGAGISRRDLLKWAGMMSTALALPASFAPLTLKAVEVANRLPVIWLHMAECTGCSESLLRSADPTIDSIIFDYINLEYHETIMVASGFQAEKSLHDAIEKHKNNYILMVEGGIPQGTEYFLTQGPNAETGAEECRKAAQYAAAIFAIGTCSSFGGVQAAYPNPSNAQPLHKIIDKPVINVPGCPPSEKNIVGNVLYYLMFGALPKLDAYNRPSWAYGNRIHDLCERRGHFDAGEFVEHFGDENAKRGFCLYKMGCKGPYTFNNCSKLRFNSHTSWPIGAGHGCIGCSEPNFWDTMSPFEEPLANRSIKTAFDGLGADKVADKVGTTLLSATAIGIVAHALLSKAIKNKE
Take B4: the “growth OD595 in M63-maltose” value with T25-HP0221 (NifU) stood at 0.08 OD595; with HP0221-T25 (NifU), 0.24 OD595.

B5: T18-HP0665 (natural protein, Helicobacter pylori strain 26695, UniProt O25376 2-457, looked up)
chain: QTIDFEKFSQYSKPGPRYTSYPTAVEFNENFNEESLKTAFFNHDNLKNPMPLSLYTHLPFCRSACYFCACSVIYTSLEEKKIRYISYLKKELALLKNAMDTNREVAQFHYGGGTPTFFSPIQLDEITQSIQEVFPNFSKDIEMSCEIDPRHFTKEHMQTLFDRGFNRLSFGVQDFDFEVQKAIHRIQPFEMVQESVKLARDYGIKSINFDLIYGLPNQTKEGFLKTLEWVLKLDPDRLAVFNYAHVPWVKKTMRKIDETLLPSLRDKLEILESLISFLEKANYQMIGMDHFAKSDNELYLALQKAELRRNFQGYTTKKFTQTIGIGVTSIGEGGDYYTQNYKDLHHYEKALDLGHLPVERGVALSQEDVLRKEVIMQMMSNLKLDYSKIEEKFSVDFKAHFKKELEKLKPYEEAGLLSFNSKGFEMTKTGGMLVRNMAMEFDAYLRGGEKHFSKTL
Regarding B5, the “growth OD595 in M63-maltose” value with T25-HP0221 (NifU) amounted to 0.07 OD595; in the assay with HP0221-T25 (NifU) it was 0.06 OD595.

B6: T18-HP0654 (natural protein, Helicobacter pylori strain 26695, UniProt O25368 2-360, looked up)
chain: DFLEKVLDNQVTESKELVRLYDYDLYTLGEVADRMRQNMHQKIVYFNVNRHLNPSNICADACKFCAFSAHRKNPNPYEMSLEEILEKVKNSYNKGIKEVHIVSAHNPNYSYEWYLKVFETIKQEMPNLHLKAMTAAEVHFLSVKFNKPFELVLEDMLKAGVDSMPGGGAEIFDEEIRRKICNGKVGSSRWLEIHAYWHKLGKMSNATMLFGHIENKIHRIDHMLRIKKIQSPKNQVENKEGGFNAFIPLLYQKENNYLNVEKSPSAIEILKTIAISRILLNNIPHIKAYWATLGLNLALVAQEFGANDLDGTIEIESIQSAAGAKSRHGLEKEDLIFKIKDAGFVAVERDSLYNFIQKF
For the molecule B6, the results for the “growth OD595 in M63-maltose” value with T25-HP0221 (NifU) and with HP0221-T25 (NifU) were 0.09 OD595 and 0.33 OD595, respectively.

B7: T18-HP0117 (natural protein, Helicobacter pylori strain 26695, UniProt P56080 2-308, looked up)
chain: AKENPPIVFGPVLSRRFGKSLGVDLSPSKKQCNYNCIYCELGKAKPIERMEEVIKVETLINAIQNALNNLTTPIDVLTITANGEPTLYPHLLELIQSIKPFLKGVKTLILSNGSLFYEPKVQQALKEFDIVKFSLDAIDLKAFERVDKPYSKDINKILEGILRFSQIYQGQLVAEVLLIKGVNDSANNLKLIAAFLKQINIARVDLSTIDRPSSFKAPKLSEDELLKCSLFFEGLCVSLPKRSITQAKKLISCGIDELLALISRRPLSAEEAPLILDSNAFKHLETLLNHKQITIKKVGSLEFYCAF
For the molecule B7, the “growth OD595 in M63-maltose” value with T25-HP1492 (Nfu) stood at 0.09 OD595.

B8: T18-HP0779 (natural protein, Helicobacter pylori strain 26695, UniProt P56418 2-852, looked up)
chain: KDFLEDYKKSVSERGSEGIPPLPLNAKQVQAVVEILTKDPTNAAFAKELLIHRVSPGVDEGAKVKAEFLAKLSQKKLECVHISALEATTLLGTMLGGYNVEPLIMGLESQDKNIAKESAKALKTTLLVYGSFDKIAAMSKTNALAKEVLESWANAEWFLNKEPLNECIEACVFKIDGETNTDDLSPASDAFTRSDIPLHAKAMLKNRIENYEQRIKAIKTKGVPVAYVGDVVGTGSSRKSATNSIMWHFGKDIPFVPNKRSGGIVIGGVIAPIFFATCEDSGALPIVADVKDLKEGDLIKIYPYKGEITLNDKVVSTFKLEPETLLDEVRASGRIPLIIGRGLTNKARKFLGLGESEAFKKPSAPKSDAKGYTLAQKIVGHACGVKGILPGTYCEPKVTTVGSQDTTGAMTRDEVKELASLKFDAPFVLQSFCHTAAYPKPSDVSLHATLPGFITQRGGVALHPGDGVIHTWLNRMGLPDTLGTGGDSHTRFPLGISFPAGSGLVAFAAVTGTMPLNMPESVLVRFKGEMNPGITLRDLVNAIPYYAIKKGLLTVEKKGKINVFNGRILEIEGLPDIKMEQAFELSDASAERSAAACVVRLNKEPMIEYLKSNIKLIDEMIASGYEDKETLKKRRDAMQAWVDNPVLLEPDSNAQYAAVIEIDVAEITEPILACPNDPDDVATLSEVLADTTGKRPHAIDEVFIGSCMTNIGHFRAFGEIVKNAPPSQARLWVVPPSKMDEQELINEGYYAIFGAAGARTEVPGCSLCMGNQARVRDNAVVFSTSTRNFDNRMGRGAKVYLGSAELGAACALLGRIPTKEEYMNLVSEKLESQKDKIYRYMNFNLMENFRL
B8: the “growth OD595 in M63-maltose” value in the assay with T25-HP1492 (Nfu) was found to be 0.17 OD595.

B9: T18-HP0625 (natural protein, Helicobacter pylori strain 26695, UniProt O25342 2-359, looked up)
chain: LENRVKTKQIFIGGVAIGGDAPISTQSMTFSKTADIESTKNQIDRLKLAGADLVRVAVSNEKDALALKELKKVSPLPLIADIHFHYKFALIAAQSVDAIRINPGNIGSKEKIKAVVDACKEKNIPIRIGVNAGSLEKQFDQKYGPTPKGMVESALYNAKLLEDLDFTNFKISLKASDVIRTIEAYRMLRPLVIYPFHLGVTEAGNLFSSSIKSAMALGGLLMEGIGDTMRVSITGELENEIKVARAILRHSGRLKEGINWISCPTCGRIEANLVDMAIKVEKRLSHIKTPLDISVMGCVVNALGEAKHADMAIAFGNRSGLIIKEGKVIHKLAEKDLFETFVIEVENLAKEREKSLKD
For B9, the “growth OD595 in M63-maltose” value came to 0.11 OD595 with T25-HP0221 (NifU) and 0.37 OD595 with HP0221-T25 (NifU).
